The target in assay [1] is NOD-derived murine SIRPα (NOD allele of Sirpα) on NOD mouse macrophages (mouse (NOD strain)) (UniProt P97797). Nature of the assay: graded mCD47-Fc on adherent fresh macrophages, anti-human Fc-HRP colorimetric read-out.
Assay [2] shares this target. Briefly: graded hCD47-Fc on NOD macrophages, clustered (anti-SIRPα mAb pre-treatment) against unclustered.
Assay [3] shares this target. Briefly: graded hCD47-Fc on NOD macrophages pre-treated with a monoclonal antibody to the SIRPα ectodomain (clustered), anti-human Fc-HRP colorimetric read-out.
The target is the same in assay [4]. Briefly: graded hCD47-Fc on unmanipulated fresh NOD macrophages (unclustered), anti-human Fc-HRP colorimetric read-out.

Several values for one entry are separate records, joined by “and”; a condition that tells them apart may be missing. Equal values may be shown once. Some results are limits rather than exact numbers.

Broadly, the Kd is the concentration at which binding is half-saturated.

UniProt P97797, sequence (P97797 32-513): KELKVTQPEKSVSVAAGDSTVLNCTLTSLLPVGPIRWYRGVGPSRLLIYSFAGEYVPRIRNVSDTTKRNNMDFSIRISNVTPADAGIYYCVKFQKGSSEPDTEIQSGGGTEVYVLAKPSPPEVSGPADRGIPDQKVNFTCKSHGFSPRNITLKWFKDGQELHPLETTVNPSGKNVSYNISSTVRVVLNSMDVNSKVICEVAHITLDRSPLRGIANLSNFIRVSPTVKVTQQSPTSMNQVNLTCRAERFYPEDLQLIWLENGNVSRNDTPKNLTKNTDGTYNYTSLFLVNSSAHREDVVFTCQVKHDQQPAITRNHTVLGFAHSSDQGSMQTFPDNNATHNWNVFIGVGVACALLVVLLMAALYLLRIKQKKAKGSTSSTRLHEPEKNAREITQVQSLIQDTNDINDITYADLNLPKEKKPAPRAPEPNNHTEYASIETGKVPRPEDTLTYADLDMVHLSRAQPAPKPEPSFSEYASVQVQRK

“Mouse CD47-Fc (mCD47-Fc) fusion protein (from UniProt Q61735 19-133) (Fc fusion)”: the fold lower Kd than the NOR SIRPα-mCD47 interaction in assay [1] was 4.7 fold and > 4 fold.
Regarding “human CD47 IgV domain fused to human IgG Fc (hCD47-Fc), made in 293F cells (from UniProt Q08722 19-135) (Fc fusion)”, in assay [2], the fold rise in affinity, clustered against unclustered was above 10 fold. Moreover, the figures for the Kd in assay [3] and in assay [4] were 0.16 nM and 1.6 nM, respectively.

These data come from patent US20100239578A1.
